The test system of assay [1] is splenocytes stimulated with OVA. Nature of the assay: Antigen-specific IFN-γ production from splenocytes of treated mice. To be noted: 25 μg GSL-7 i.v.; spleen after 1 week; splenocytes stimulated with OVA 1 mg/ml, 96 hours. The format is in vivo, mouse. The protocol: Liposome F (prepared in an amount so that 25 μg of GSL-7 was contained) prepared as in Example 14 was administered to C57BL/6 mice (8- to 10-week-old males) through the caudal vein. After 1 week, the spleen was excised. Splenocytes (5×10^5) were stimulated with OVA (1 mg/ml). After 96 hours, IFN-γ levels in the culture supernatants were measured. IFN-γ levels were measured by sandwich ELISA using purified anti-IFN-γ antibodies (R4-6A2) as capture antibodies and biotin-labeled anti-IFN-γ antibodies (AN-18) as detection antibodies. In the subsequent reaction, alkaline phosphatase-labeled streptavidin was caused to bind to biotin-labeled antibodies. The color was developed using p-nitrophenyl phosphate as a substrate. The absorbance at a wavelength of 405 nm was measured using a microplate reader (MICROPLATE READER Model 550). IFN-γ concentrations in test samples were calculated based on the standard curve of IFN-γ in the recombinant mice.

A further assay relates to C57BL/6 mice. Description: Enhancing antibody production: serum anti-OVA IgG2a by ELISA. To be noted: 25 μg GSL-7 and 25 μg OVA through the caudal vein, serum after 14 days, ELISA absorbance at 405 nm. The format is in vivo, mouse. On the procedure:
Liposome F (in an amount so that 25 μg of GSL-7 and 25 μg of OVA were contained) was administered to C57BL/6 mice (8- to 10-week-old females) through the caudal vein. After 14 days, blood was collected and then serum anti-OVA antibody levels were measured by ELISA. An anti-OVA antibody titer (IgG2a) was assayed by adding the gradually diluted serum to a 96-well plate coated with OVA. Alkaline phosphatase (AP)-labeled anti-mouse IgG2a antibodies were used as detection antibodies. The color was developed using paranitrophenylphosphate (p-nitrophenyl phosphate) as a substrate. The reaction was terminated with 3N NaOH, the absorbance at 405 nm was measured using a microplate reader.
Background: In an ELISA, binding on a coated surface is turned into a signal by an enzyme label.

B1: OVA: ovalbumin (OVA) (SIGMA), antigen (protein, UniProt P01012 2-386, looked up)
Ovalbumin: GSIGAASMEFCFDVFKELKVHHANENIFYCPIAIMSALAMVYLGAKDSTRTQINKVVRFDKLPGFGDSIEAQCGTSVNVHSSLRDILNQITKPNDVYSFSLASRLYAEERYPILPEYLQCVKELYRGGLEPINFQTAADQARELINSWVESQTNGIIRNVLQPSSVDSQTAMVLVNAIVFKGLWEKAFKDEDTQAMPFRVTEQESKPVQMMYQIGLFRVASMASEKMKILELPFASGTMSMLVLLPDEVSGLEQLESIINFEKLTEWTSSNVMEERKIKVYLPRMKMEEKYNLTSVLMAMGITDVFSSSANLSGISSAESLKISQAVHAAHAEINEAGREVVGSAEAGVDAASVSEEFRADHPFLFCIKHIATNAVLFFGRCVSP
Regarding B1, the IFN-γ in assay [1] was 4.79 ± 0.45 ng/mL. In addition, the “Anti-OVA IgG2a” value in the assay on C57BL/6 mice is 0.049 ± 0.018.

Source of the values: patent publication US20110104248A1, “LIPOSOMES AND IMMUNOPOTENTIATING COMPOSITIONS CONTAINING THE SAME” (FOODCHEMIFA CO., LTD., priority 2007, published 2011).
